The target of assay [1] is T1, human ROR1 (human, UniProt Q01973 30-403, limits assumed).
T1 construct: also called human ROR1 protein
The assay can be described thus: SPR (Biacore 3000), human ROR1 on CM5 chip, IgG injected, 1:1 Langmuir. Here is the method:
(§1) To more quantitatively analyze the binding ability of the anti-ROR1 antibody to ROR1, SPR (surface plasmon resonance) was performed. A Biacore 3000 device (GE Healthcare) was used. Using the amine coupling method, human ROR1 or mouse ROR1 was diluted with 10 mM sodium acetate, pH 4.5 and immobilized on a CM5 sensor chip (GE Healthcare) at 300 response units (RU). The activated portion remaining on the surface of the sensor chip was deactivated by adding 1 M ethanolamine-HCl (pH 8.5).

Assay [2] has as its target T2, FZD+KRD (human, UniProt Q01973).
T2 construct: frizzled plus kringle domains, His tag; also called FK domain; human ROR1-frizzled-kringle domain
The assay can be described thus: ELISA, IgG on coated domain, OD450. Here is the method:
(§2) ELISA was performed to analyze the binding domain using the IgG antibody of the selected clone.
(§3) After washing with PBST and distilled water, binding at room temperature for 1 hour using a goat-derived HRP-conjugated anti-human antibody (Invitrogen, 31482, Goat anti-Human IgG F(ab′)₂ Secondary Antibody, HRP) and then washing again using PBST and distilled water were performed. After color development by adding TMB substrate solution (Thermo Scientific, 34029, 1-Step™ Ultra TMB-ELISA Substrate Solution), the color reaction was stopped with stop solution (Invitrogen, SS04, ELISA Stop Solution), and the absorbance was measured at OD 450 nm. The anti-ROR1 antibody clone binding to each domain was analyzed through ELISA (FIG. 3).
(An ELISA detects its analyte on a solid surface through an enzyme-linked reagent.)

Assay [3] deals with T3, Ig-like (human, UniProt Q01973).
T3 construct: Ig-like domain, His tag; also called Ig-like domain; human ROR1-immunoglobulin domain
T3 sequence (Q01973 39-151 limits assumed): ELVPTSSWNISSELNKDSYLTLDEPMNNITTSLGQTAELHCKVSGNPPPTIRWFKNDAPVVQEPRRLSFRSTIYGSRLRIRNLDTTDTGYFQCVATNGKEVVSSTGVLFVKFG
The assay can be described thus: ELISA, IgG on coated domain, OD450. The method, then: as §2, §3

Assay [4] deals with T4, FZD (human, UniProt Q01973).
T4 construct: frizzled domain, His tag; also called Frizzled domain; human ROR1-frizzled domain
T4 sequence (Q01973 165-305 limits assumed): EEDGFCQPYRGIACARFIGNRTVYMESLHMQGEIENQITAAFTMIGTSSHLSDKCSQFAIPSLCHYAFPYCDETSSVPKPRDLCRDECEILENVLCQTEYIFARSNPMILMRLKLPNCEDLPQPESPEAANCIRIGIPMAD
The experiment in a line: ELISA, IgG on coated domain, OD450. The method, then:
as §2, §3

Assay [5] deals with T5, Ig+FZD (human).
T5 construct: Ig-like plus frizzled domains, His tag; also called IF domain; human ROR1-immunoglobulin-frizzled domain
T5 sequence (Q01973 30-305): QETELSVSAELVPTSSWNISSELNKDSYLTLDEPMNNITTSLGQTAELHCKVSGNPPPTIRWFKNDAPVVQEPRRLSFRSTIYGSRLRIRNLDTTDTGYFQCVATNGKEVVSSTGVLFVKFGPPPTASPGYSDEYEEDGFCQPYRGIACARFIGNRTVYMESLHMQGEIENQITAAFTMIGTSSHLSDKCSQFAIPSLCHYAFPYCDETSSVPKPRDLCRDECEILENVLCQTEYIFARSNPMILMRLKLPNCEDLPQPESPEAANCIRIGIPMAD
The experiment in a line: ELISA, IgG on coated domain, OD450. The method, then:
as §2, §3

Assay [6] addresses T6, ROR1 expressed on cell surface (Jeko-1 cell line, AMB-LC-0003T and AMB-LC-0002T patient-derived lung cancer … (human, UniProt Q01973 30-937)).
T6 construct: whole, on cells; Endogenous ROR1 on human cells; the cell is named in the assay or readout field of each row; also called ROR1 antigen expressed in AMB-LC-0003T patient-derived lung cancer cells; ROR1 antigen expressed in Jeko-1 cell line
The assay can be described thus: flow cytometry on AMB-LC-0003T patient-derived lung cancer cells. Here is the method:
(§4) Before therapeutic use of anti-ROR1 antibodies, it is very important to determine whether the antibody binds to the antigen expressed on the cell surface. The cell binding ability of anti-ROR1 antibodies developed by the present inventors was measured using FACS in Jeko-1 cell line and AMB-LC-0003T patient-derived cells, which were confirmed to have high ROR1 expression. Each cell type was dispensed at 1×10⁵ cells/100 μl FACS buffer per well in a 96-well plate.
(§5) Cell binding ability analysis was performed using anti-ROR1 candidate antibodies P015004, P015042, P015043, P015044, P015042v1 with improved biological and physical properties, and P015042v1-6, one of modified materials thereof. Each antibody was serially diluted 10-fold from 100 nM to 10 nM, 1 nM, 100 pM, 10 pM, and 1 pM and the cells were treated therewith. After reaction at 4° C. for 30 minutes, washing was performed twice. PE-labeled goat anti-human IgG Fc PE (ThermoFisher; 12-4998-82) as a secondary antibody was diluted at a ratio of 1:100 in FACS buffer, and 100 μl thereof was dispensed per well. Reaction again at 4° C. for 30 minutes and washing twice were performed. Finally, 100 μl of FACS buffer was dispensed per well, followed by mixing well with a pipette and then flow cytometry using a NovoCyte flow cytometer (Agilent). Analysis was performed using GraphPad Prism 9.3.1, and EC₅₀ values were obtained using a log (agonist) vs. response-Variable slope nonlinear graph model.

Assay [7] deals with T7, mouse ROR1 (mouse, UniProt Q9Z139 30-403, limits assumed).
T7 construct: also called mouse ROR1 protein
T7 sequence (Q9Z139 30-403 limits assumed): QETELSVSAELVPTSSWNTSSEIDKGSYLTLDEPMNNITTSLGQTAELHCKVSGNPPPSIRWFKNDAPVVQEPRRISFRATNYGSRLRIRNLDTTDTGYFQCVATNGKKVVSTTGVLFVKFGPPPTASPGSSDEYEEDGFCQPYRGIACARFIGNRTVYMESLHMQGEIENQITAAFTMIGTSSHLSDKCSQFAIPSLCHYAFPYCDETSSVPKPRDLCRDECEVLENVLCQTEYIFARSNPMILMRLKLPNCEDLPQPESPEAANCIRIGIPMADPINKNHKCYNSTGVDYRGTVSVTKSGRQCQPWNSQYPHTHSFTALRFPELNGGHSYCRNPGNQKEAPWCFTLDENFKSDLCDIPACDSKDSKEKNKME
The experiment in a line: SPR (Biacore 3000), mouse ROR1 on CM5 chip, IgG injected, 1:1 Langmuir. Here is the method:
as §1

Assay [8] deals with T6, ROR1 expressed on cell surface (Jeko-1 …). The experiment in a line: flow cytometry on Jeko-1 cells. Here is the method:
as §4, §5
(Flow cytometry measures light scatter and fluorescence of single cells or particles in a stream.)

For assay [9], the target named is T1, human ROR1. The experiment in a line: ELISA, IgG on coated human ROR1, OD450. The method, then: (§6) A 96-well plate was coated at 4° C. for 16 hours with each of human ROR1 and mouse ROR1 proteins at a concentration of 2 μg/ml and then blocked using […]. […] After washing with PBST and distilled water, binding at room temperature for 1 hour using a goat-derived HRP-conjugated anti-human antibody (Invitrogen, 31482, Goat anti-Human IgG F(ab′)₂ Secondary Antibody, HRP) and then washing again using PBST and distilled water were performed. After color development by adding TMB substrate solution (Thermo Scientific, 34029, 1-Step™ Ultra TMB-ELISA Substrate Solution), the color reaction was stopped with stop solution (Invitrogen, SS04, ELISA Stop Solution), and the absorbance was measured at OD 450 nm. It was confirmed that the anti-ROR1 antibody of the present invention and the modified antibody thereof with improved biological and physical properties […] to human ROR1 and mouse ROR1 (FIG. 2).

Assay [10] concerns the target T7, mouse ROR1. The assay can be described thus: ELISA, IgG on coated mouse ROR1, OD450. The method, then:
as §6

For orientation: Kd means the free concentration of one partner at which half of the binding sites on the other are occupied at equilibrium, for simple one-to-one binding. High values mean lower affinity, low ones higher affinity. The koff is the rate constant with which the complex falls apart. Read a low koff as slow dissociation. By kon is commonly meant the second-order rate constant of association. Low values mean slow association, high ones fast association. As usually defined, the EC50 (read off the curve) is the concentration giving half of the maximal effect. Read a high EC50 (read off the curve) as weaker potency. The EC50 is the midpoint of the concentration-response curve.

Positions count from the first letter of the chain named.

T2 sequence (Q01973 165-395 limits assumed): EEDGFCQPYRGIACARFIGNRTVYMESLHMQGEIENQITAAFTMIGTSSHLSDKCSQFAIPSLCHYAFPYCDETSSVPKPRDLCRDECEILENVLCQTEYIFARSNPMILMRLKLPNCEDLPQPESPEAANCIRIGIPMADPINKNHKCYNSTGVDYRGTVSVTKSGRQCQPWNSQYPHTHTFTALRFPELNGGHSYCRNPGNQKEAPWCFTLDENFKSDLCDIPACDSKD
T1 sequence (Q01973 30-403 limits assumed): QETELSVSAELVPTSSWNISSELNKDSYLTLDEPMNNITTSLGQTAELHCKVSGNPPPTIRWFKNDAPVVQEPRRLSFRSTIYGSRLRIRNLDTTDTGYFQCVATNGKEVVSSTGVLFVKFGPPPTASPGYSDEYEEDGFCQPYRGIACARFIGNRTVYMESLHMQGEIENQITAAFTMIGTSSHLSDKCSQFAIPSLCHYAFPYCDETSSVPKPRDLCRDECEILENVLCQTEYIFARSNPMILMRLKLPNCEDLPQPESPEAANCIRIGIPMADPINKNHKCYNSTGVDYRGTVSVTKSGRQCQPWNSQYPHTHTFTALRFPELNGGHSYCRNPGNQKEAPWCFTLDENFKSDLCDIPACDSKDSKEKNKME
T6 sequence (Q01973 30-937): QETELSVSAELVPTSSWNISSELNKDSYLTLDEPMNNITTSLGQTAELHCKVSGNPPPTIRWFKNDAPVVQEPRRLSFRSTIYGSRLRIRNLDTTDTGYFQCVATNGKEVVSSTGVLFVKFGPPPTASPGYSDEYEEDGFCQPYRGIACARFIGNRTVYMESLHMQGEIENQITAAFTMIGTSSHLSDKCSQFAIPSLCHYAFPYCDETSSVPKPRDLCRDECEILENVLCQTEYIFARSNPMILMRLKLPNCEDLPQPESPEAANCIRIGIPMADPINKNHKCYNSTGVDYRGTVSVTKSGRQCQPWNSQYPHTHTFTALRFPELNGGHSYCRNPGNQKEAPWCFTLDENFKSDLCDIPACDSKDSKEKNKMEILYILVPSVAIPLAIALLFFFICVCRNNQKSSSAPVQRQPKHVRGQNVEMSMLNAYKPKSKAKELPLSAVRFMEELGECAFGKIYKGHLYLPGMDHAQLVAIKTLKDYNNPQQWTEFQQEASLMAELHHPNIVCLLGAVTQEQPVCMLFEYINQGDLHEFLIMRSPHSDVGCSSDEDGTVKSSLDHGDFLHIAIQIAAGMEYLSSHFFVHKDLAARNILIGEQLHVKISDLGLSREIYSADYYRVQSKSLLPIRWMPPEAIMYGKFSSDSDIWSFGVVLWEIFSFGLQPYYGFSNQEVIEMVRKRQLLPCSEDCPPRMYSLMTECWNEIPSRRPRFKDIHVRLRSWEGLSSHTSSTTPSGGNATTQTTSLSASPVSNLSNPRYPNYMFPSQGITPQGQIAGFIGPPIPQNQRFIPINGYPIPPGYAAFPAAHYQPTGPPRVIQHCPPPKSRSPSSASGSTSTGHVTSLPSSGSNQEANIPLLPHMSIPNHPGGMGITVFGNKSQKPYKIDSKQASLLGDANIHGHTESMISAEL

B1: P015004 (antibody, V domains shown)
VH: EVQLLESGGGLVQPGGSLRLSCAASGFTFSDYAMAWVRQAPGKGLEWVSIIYPGDSETIYSPSFEGRFTISRDNSKNTLYLQMNSLRAEDTAVYYCARDTYWEGYFDLWGQGTLVTVSS
VL: EIVLTQSPGTLSLSPGERATLSCRASQGISNYLAWYQQKPGQAPRLLIYDASNLESGIPDRFSGSGSGTDFTLTISRLEPEDFAVYYCQQYANLPYTFGQGTKVEIK
On to B1, for which the Kd is 0.325 nM in assay [1] and 0.328 nM in assay [7]. The dissociation rate constant (koff) in [1] amounted to 0.00343 s⁻¹; in [7] it was 0.00269 s⁻¹. The kon in [1] worked out at 1.06e+07 M⁻¹ s⁻¹; in assay [7] it was 8.18e+06 M⁻¹ s⁻¹. Also, the binding result in assay [2], in assay [3] and in [4] was “no binding (tested: 300 nM)” each time. Further, the 50% effective concentration (EC50 (read off the curve)) in assay [5] was around 3 nM. Besides, the concentration giving a half-maximal response (EC50) was 4.6 nM in assay [6] and 8.16 nM in [8].

B2: P015018 (antibody, V domains shown)
VH: EVQLLESGGGLVQPDGSMRLICAASGFTFSSYAKHWVRQAPGKGLEWVSEIYTSGSTNYNPSLKSRFTISRDNSKNTLYLQMNSLRAEDTAVYYCARDTWWEGYFDLWGQGTLVTVSS
VL: B1 VL with G28S, I29V, N31T, N53S, Y91S, A92Y, Y96H
For B2, the figures for the Kd in assay [1] and in assay [7] were 0.845 nM and 83.2 nM, respectively. Besides, the koff in assay [1] was found to be 0.00249 s⁻¹; in assay [7] it was 0.0782 s⁻¹. The on-rate constant (kon) in assay [1] was found to be 2.95e+06 M⁻¹ s⁻¹; in assay [7] it was 940000 M⁻¹ s⁻¹. Besides, the binding result in assay [2], in assay [3] and in assay [4] was “no binding (tested: 300 nM)” throughout. Further, the “EC50 (read off the curve)” value in assay [5] is around 10 nM; in [9], around 1 nM.

B3: P015044 (antibody, V domains shown)
VH: EVQLLESGGGLVQPGGSLRLSCAASGFTFSNYAMHWVRQAPGKGLEWVSIIYPDDDTRYNPSFRGRFTISRDNSKNTLYLQMNSLRAEDTAVYYCARDLLYAGDYWGQGTLVTVSS
VL: QSVLTQPPSASGTPGQRVTISCGGNNIESKAVHWYQQLPGTAPKLLIYANNKRPSGVPDRFSGSKSGTSASLAISGLRSEDEADYYCQSYDSNKVVFGGGTKLTVL
For B3, the Kd in assay [1] is 3.08 nM; in [7] it was 1.21 nM. The koff in assay [1] was found to be 0.00382 s⁻¹; in assay [7], 0.00202 s⁻¹. Besides, the figures for the kon in assay [1] and in assay [7] were 1.24e+06 M⁻¹ s⁻¹ and 1.67e+06 M⁻¹ s⁻¹, respectively. In addition, the binding result in assay [2] and in assay [4] was “no binding (tested: 300 nM)” in each case. The half-maximal effective concentration (EC50) in assay [6] worked out at 1.78 nM; in [8] it was 0.13 nM.

B4: P015042 (antibody, V domains shown)
VH: EVQLLESGGGLVQPGGSLRLSCAASGFTFSDYAMSWVRQAPGKGLEWVSVISSDGGSIYYADSVKGRFTISRDNSKNTLYLQMNSLRAEDTAVYYCAKDRSRDMEVDFDYWGQGTLVTVSS
VL: QSVLTQPPSASGTPGQRVTISCSGSSSNIGSNYVTWYQQLPGTAPKLLIYDSSQRPSGVPDRFSGSKSGTSASLAISGLRSEDEADYYCGTWDYSLSGYVFGGGTKLTVL
For the molecule B4, the dissociation constant Kd in [1] turned out to be 0.17 nM; in assay [7], 0.102 nM. The koff in [1] stood at 0.000239 s⁻¹; in assay [7], 0.000176 s⁻¹. The kon worked out at 1.41e+06 M⁻¹ s⁻¹ in [1] and 1.72e+06 M⁻¹ s⁻¹ in assay [7]. Moreover, the binding result in assay [2] and in assay [4] was “no binding (tested: 300 nM)” each time. Besides, the concentration giving a half-maximal response (EC50 (read off the curve)) was around 7 nM in [3] and around 0.4 nM in assay [5]. In addition, the values for the EC50 in [6] and in [8] were 0.15 nM and 0.081 nM, respectively.

B5: P015012 (antibody, V domains shown)
VH: EVQLLESGGGLVQPGGSLRLSCAASGFTFSGYSMSWVRQAPGKGLEWVSGISYGGSSISYADSVKGRFTISRDNSKNTLYLQMNSLRAEDTAVYYCAKPVRRWARFRLSYDDAMDVWGQGTLVTVSS
VL: B4 VL with S31N, Y33A, T35N, D51A, S52N, Q54H, Y94S
Consider B5, for which, in assay [1], the Kd worked out at 0.0789 nM, the koff is 0.000321 s⁻¹ and the association rate constant (kon) was 4.07e+06 M⁻¹ s⁻¹. Further, the binding result in assay [3] is on record as “no binding (tested: 300 nM)”. In addition, the “EC50 (read off the curve)” value in [5] was around 2 nM. In assay [7], this molecule returned a Kd of 0.285 nM, a koff of 0.000356 s⁻¹ and an on-rate constant (kon) of 1.25e+06 M⁻¹ s⁻¹.

B6: P015042v1-6 (antibody, V domains shown)
VH: B4 VH with G55K
VL: B4 VL with S52K, S97N, G98A
notes: Variant of P015042v1, tested as IgG
In the case of B6, the results for the equilibrium dissociation constant (Kd) in assay [1] and in assay [7] were 0.0912 nM and 0.802 nM, respectively. The koff in [1] was 0.000157 s⁻¹; in assay [7], 0.0015 s⁻¹. Further, the on-rate constant (kon) is 1.72e+06 M⁻¹ s⁻¹ in assay [1] and 1.87e+06 M⁻¹ s⁻¹ in [7]. In addition, the “EC50 (read off the curve)” value in [9] is around 0.5 nM; in assay [10] it was around 1 nM. Further, the concentration giving a half-maximal response (EC50) in [8] is 0.011 nM.

B7: P015042v1 (antibody, V domains shown)
VH: B4 VH
VL: B4 VL with S97N
notes: Tested as complete IgG; Parent of the variants P015042v1-1 to P015042v1-6
For B7, in [1], the dissociation constant (Kd) came out at 0.172 nM, the koff turned out to be 0.000278 s⁻¹ and the on-rate (kon) came out at 1.62e+06 M⁻¹ s⁻¹. In assay [6], this molecule gave a half-maximal effective concentration (EC50) of 0.16 nM. In addition, in [7], the dissociation constant Kd is 0.175 nM, the dissociation rate constant (koff) turned out to be 0.00034 s⁻¹ and the kon came out at 1.94e+06 M⁻¹ s⁻¹. In assay [8], this molecule came in with an EC50 of 0.014 nM.

Values taken from patent US20260028400A1 (AIMED BIO, published 2026).
